Source: publication PMC9482650, “Quantitative fragmentomics allow affinity mapping of interactomes” (Nature Communications, 2022)

T1: APBA1_2, Q02410
T1 sequence (Q02410 742-832, limits assumed, looked up): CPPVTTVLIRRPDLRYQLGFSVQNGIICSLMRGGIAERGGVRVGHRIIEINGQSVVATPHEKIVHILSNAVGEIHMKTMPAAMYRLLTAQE

T2: LNX2_3, Q8N448
T2 sequence (Q8N448 463-564, limits assumed, looked up): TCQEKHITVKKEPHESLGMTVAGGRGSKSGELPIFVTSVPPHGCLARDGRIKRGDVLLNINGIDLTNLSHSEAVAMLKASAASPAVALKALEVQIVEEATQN

T3: LRRC7, Q96NW7
T3 sequence (Q96NW7 1440-1537, limits assumed, looked up): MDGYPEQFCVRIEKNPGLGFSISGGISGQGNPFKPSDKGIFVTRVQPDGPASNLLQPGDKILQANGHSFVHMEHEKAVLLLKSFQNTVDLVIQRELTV

T4: HTRA4, P83105
T4 sequence (P83105 378-476, limits assumed, looked up): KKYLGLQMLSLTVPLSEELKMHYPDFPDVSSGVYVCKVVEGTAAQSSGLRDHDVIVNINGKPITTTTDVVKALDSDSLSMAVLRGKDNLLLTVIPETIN

T5: GRIP1_5, Q9Y3R0
T5 sequence (Q9Y3R0 568-668, limits assumed, looked up): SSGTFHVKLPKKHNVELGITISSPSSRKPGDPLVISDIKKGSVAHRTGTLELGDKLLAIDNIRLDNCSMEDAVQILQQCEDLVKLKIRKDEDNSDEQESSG

T6: DFNB31_2, Q9P202
T6 sequence (Q9P202 274-371, limits assumed, looked up): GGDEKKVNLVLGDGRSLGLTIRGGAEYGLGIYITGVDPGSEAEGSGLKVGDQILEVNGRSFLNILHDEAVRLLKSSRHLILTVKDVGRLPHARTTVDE

T7: SIPA1L2, Q9P2F8
T7 sequence (Q9P2F8 945-1036, limits assumed, looked up): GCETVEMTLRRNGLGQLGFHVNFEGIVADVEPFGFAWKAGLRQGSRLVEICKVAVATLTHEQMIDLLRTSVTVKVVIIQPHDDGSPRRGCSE

T8: DFNB31_1, Q9P202
T8 sequence (Q9P202 135-233, limits assumed, looked up): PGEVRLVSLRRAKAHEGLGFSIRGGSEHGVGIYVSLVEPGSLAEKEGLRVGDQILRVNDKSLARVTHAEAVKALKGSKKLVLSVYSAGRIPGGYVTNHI

T9: TJP3_3, O95049
T9 sequence (O95049 375-456, limits assumed, looked up): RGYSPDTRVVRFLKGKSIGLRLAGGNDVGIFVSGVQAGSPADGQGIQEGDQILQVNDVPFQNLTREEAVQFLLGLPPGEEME

T10: PDZD7_3, Q9H5P4
T10 sequence (Q9H5P4 857-944, limits assumed, looked up): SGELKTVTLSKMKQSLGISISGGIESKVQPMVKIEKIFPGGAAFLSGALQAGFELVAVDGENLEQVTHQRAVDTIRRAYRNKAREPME

T11: TIAM2, Q8IVF5
T11 sequence (Q8IVF5 885-986, limits assumed, looked up): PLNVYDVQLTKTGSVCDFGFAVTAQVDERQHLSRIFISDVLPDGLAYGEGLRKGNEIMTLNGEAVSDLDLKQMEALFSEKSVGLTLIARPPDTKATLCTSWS

T12: APBA2_1, Q99767
T12 sequence (Q99767 563-664, limits assumed, looked up): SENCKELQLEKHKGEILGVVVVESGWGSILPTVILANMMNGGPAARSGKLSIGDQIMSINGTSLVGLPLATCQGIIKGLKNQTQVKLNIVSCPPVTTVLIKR

T13: NHERF3_1, Q5T2W1
T13 sequence (Q5T2W1 4-100, limits assumed, looked up): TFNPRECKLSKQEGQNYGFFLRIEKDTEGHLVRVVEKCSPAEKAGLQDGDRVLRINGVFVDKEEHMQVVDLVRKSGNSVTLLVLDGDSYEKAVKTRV


Tests used:
Experiment in all cases: holdup assay
Set-up in all cases: key: below the threshold = too weak to quantify, mostly under pKd 3.1 to 4
Settings in all cases: plain residues with an end cap or a label only (N-terminal biotin on a linker: ado-ado)
APBA1_2, Q02410 = molecular target: T1, APBA1_2, Q02410
LNX2_3, Q8N448 = molecular target: T2, LNX2_3, Q8N448
LRRC7, Q96NW7 = molecular target: T3, LRRC7, Q96NW7
CASK, O14936 = molecular target: CASK, O14936
Sequence of CASK, O14936 (O14936 487-570): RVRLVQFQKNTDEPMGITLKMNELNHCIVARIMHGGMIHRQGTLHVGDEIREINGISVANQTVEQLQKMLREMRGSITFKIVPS

DLG1_1, Q12959 = molecular target: DLG1_1, Q12959
MAGI2_6, Q86UL8 = molecular target: MAGI2_6, Q86UL8
Sequence of MAGI2_6, Q86UL8 (Q86UL8 1141-1229): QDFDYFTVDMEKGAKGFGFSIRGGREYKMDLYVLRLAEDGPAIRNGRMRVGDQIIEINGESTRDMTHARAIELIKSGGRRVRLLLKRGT

HTRA4, P83105 = molecular target: T4, HTRA4, P83105
GRIP1_5, Q9Y3R0 = molecular target: T5, GRIP1_5, Q9Y3R0
NHERF4_2, Q86UT5 = molecular target: NHERF4_2, Q86UT5
Sequence of NHERF4_2, Q86UT5 (Q86UT5 220-308): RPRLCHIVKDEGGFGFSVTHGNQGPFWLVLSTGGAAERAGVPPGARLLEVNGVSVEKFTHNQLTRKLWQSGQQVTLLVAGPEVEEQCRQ

DFNB31_2, Q9P202 = molecular target: T6, DFNB31_2, Q9P202
SIPA1L2, Q9P2F8 = molecular target: T7, SIPA1L2, Q9P2F8
DFNB31_1, Q9P202 = molecular target: T8, DFNB31_1, Q9P202
TJP3_3, O95049 = molecular target: T9, TJP3_3, O95049
MAST1, Q9Y2H9 = molecular target: MAST1, Q9Y2H9
Sequence of MAST1, Q9Y2H9 (Q9Y2H9 962-1065): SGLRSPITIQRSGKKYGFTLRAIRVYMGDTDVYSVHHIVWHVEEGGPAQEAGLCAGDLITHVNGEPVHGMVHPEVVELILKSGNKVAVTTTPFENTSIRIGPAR

DLG1_3, Q12959 = molecular target: DLG1_3, Q12959
NHERF2_2, Q15599 = molecular target: NHERF2_2, Q15599
Sequence of NHERF2_2, Q15599 (Q15599 142-238): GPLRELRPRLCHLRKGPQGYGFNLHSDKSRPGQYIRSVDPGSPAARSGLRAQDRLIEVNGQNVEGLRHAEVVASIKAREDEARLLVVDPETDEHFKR

PDZD7_3, Q9H5P4 = molecular target: T10, PDZD7_3, Q9H5P4
TIAM2, Q8IVF5 = molecular target: T11, TIAM2, Q8IVF5
APBA2_1, Q99767 = molecular target: T12, APBA2_1, Q99767
GRIP2_6, Q9C0E4 = molecular target: GRIP2_6, Q9C0E4
Sequence of GRIP2_6, Q9C0E4 (Q9C0E4 648-740): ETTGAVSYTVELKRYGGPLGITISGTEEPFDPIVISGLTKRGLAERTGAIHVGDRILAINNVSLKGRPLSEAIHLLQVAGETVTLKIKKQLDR

SCRIB_1, Q14160 = molecular target: SCRIB_1, Q14160
Sequence of SCRIB_1, Q14160 (Q14160 718-814): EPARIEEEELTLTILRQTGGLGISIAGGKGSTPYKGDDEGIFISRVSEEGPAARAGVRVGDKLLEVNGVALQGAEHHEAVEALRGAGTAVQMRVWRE

GIPC2, Q8TF65 = molecular target: GIPC2, Q8TF65
Sequence of GIPC2, Q8TF65 (Q8TF65 112-203): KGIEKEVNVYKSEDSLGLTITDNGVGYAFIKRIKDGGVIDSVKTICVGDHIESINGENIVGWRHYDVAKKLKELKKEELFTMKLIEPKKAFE

Inadl_3, Q8NI35 = molecular target: Inadl_3, Q8NI35
Sequence of Inadl_3, Q8NI35 (Q8NI35 359-469): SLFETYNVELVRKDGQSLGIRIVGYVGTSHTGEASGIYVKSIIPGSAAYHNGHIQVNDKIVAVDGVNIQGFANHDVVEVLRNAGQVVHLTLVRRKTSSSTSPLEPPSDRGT

DLG1_2, Q12959 = molecular target: DLG1_2, Q12959
NHERF3_1, Q5T2W1 = molecular target: T13, NHERF3_1, Q5T2W1

| Binder | pKd (APBA1_2, Q02410) | pKd (LNX2_3, Q8N448) | pKd (LRRC7, Q96NW7) | pKd (CASK, O14936) | pKd (DLG1_1, Q12959) | pKd (MAGI2_6, Q86UL8) | pKd (HTRA4, P83105) | pKd (GRIP1_5, Q9Y3R0) | pKd (NHERF4_2, Q86UT5) | pKd (DFNB31_2, Q9P202) | pKd (SIPA1L2, Q9P2F8) | pKd (DFNB31_1, Q9P202) | pKd (TJP3_3, O95049) | pKd (MAST1, Q9Y2H9) | pKd (DLG1_3, Q12959) | pKd (NHERF2_2, Q15599) | pKd (PDZD7_3, Q9H5P4) | pKd (TIAM2, Q8IVF5) | pKd (APBA2_1, Q99767) | pKd (GRIP2_6, Q9C0E4) | other results |
| --- | --- | --- | --- | --- | --- | --- | --- | --- | --- | --- | --- | --- | --- | --- | --- | --- | --- | --- | --- | --- | --- |
| PELESKESVL [SLC1A4, P43007] | below the threshold | below the threshold | 3.53 | below the threshold | 3.51 | 3.93 | below the threshold | below the threshold | below the threshold | 3.5 | below the threshold | 3.6 | below the threshold | 4.71 | below the threshold | 4.4 | 4.8 | below the threshold | below the threshold | below the threshold | pKd (SCRIB_1, Q14160): 4.18; pKd (GIPC2, Q8TF65): below the threshold; pKd (Inadl_3, Q8NI35): below the threshold; pKd (DLG1_2, Q12959): 4.04; pKd (NHERF3_1, Q5T2W1): 4.51 |
| RQSILFSTEV [BCR, P11274] | 4.07 | below the threshold | 3.88 | below the threshold | 4.64 | 4.67 | 4.82 | below the threshold | below the threshold | below the threshold | below the threshold | 4.27 | below the threshold | 4.97 | 4.06 | below the threshold | 4.85 | below the threshold | below the threshold | 4.47 | pKd (SCRIB_1, Q14160): 4.69; pKd (GIPC2, Q8TF65): 3.56; pKd (Inadl_3, Q8NI35): 4.66; pKd (DLG1_2, Q12959): 4.85; pKd (NHERF3_1, Q5T2W1): 5.78 |
| PLDSQQHTEV [FAT1, Q14517] | 3.7 | below the threshold | below the threshold | below the threshold | 4.37 | 4.26 | 4.26 | below the threshold | below the threshold | below the threshold | below the threshold | 3.85 | below the threshold | 4.43 | below the threshold | below the threshold | 4.31 | below the threshold | below the threshold | below the threshold | pKd (SCRIB_1, Q14160): 4.12; pKd (GIPC2, Q8TF65): 3.89; pKd (Inadl_3, Q8NI35): below the threshold; pKd (DLG1_2, Q12959): 4.99; pKd (NHERF3_1, Q5T2W1): below the threshold |
| EEDTAEKDEL [HSPA5, P11021] | below the threshold | 3.53 | 3.47 | below the threshold | 3.79 | below the threshold | below the threshold | below the threshold | below the threshold | below the threshold | below the threshold | below the threshold | below the threshold | 3.98 | 3.77 | 3.7 | below the threshold | below the threshold | below the threshold | below the threshold | pKd (SCRIB_1, Q14160): below the threshold; pKd (GIPC2, Q8TF65): 3.55; pKd (Inadl_3, Q8NI35): below the threshold; pKd (DLG1_2, Q12959): below the threshold; pKd (NHERF3_1, Q5T2W1): below the threshold |
